The supplement of paper PMC10126150
± gives the standard deviation of the averaged measurements.

System: ATP
Test: switch fluorescence ratio, 500 uM ATP over buffer (Cy3 cluster intensity, sum of 5 cycles each) (fold (ratio)); higher = stronger signal-on switching upon ATP binding; sequences stand for … in TCGTCGGCAGCGTCAGATGTGTATAAGAGACAGTTTTTTTTTTTTTTTTTTTTTTTTT…TC
Conditions: aptamer strand: ATP DNA aptamer (quencher-CACCTGGGGGAGTATTGCGGAGGAAGG + anchor), 100 nM annealed; ATP concentration: 500 uM
How it was run: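 Clusters carrying Cy3-labelled switching strands on a modified Illumina MiSeq flow-cell were annealed to 100 nM quencher-labelled ATP aptamer and imaged in selection buffer. They were imaged again after 15 min with 500 uM ATP at 22 °C, over five buffer/ATP cycles with NaOH stripping and re-annealing in between. For each cluster, the fluorescence ratio is the summed Cy3 intensity of the target cycles divided by that of the buffer cycles, averaged per switch-domain sequence. Clusters outside 100-1000 RFU were left out.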
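Note: ATP exposure 15 min at 22 °C before imaging.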

| Sequence | switch fluorescence ratio |
| --- | --- |
| GGCCATTTTT | 1.01 ± 0.03 |
| GGCCCAGCGC | 0.976 ± 0.0011 |
| GGCCCAGGAT | 1.07 ± 0.094 |
| GGCCCAGGGA | 1.18 ± 0.18 |
| GGCCCCAAAT | 0.9817 ± 0.0041 |
| GGCCCCTGGC | 1.04 ± 0.063 |
| GGCCCCTTAG | 1.02 ± 0.03 |
| GGCCCGGGTT | 0.994 ± 0.019 |
| GGCCCGTACT | 1.04 ± 0.042 |
| GGCCCTGCGA | 1.06 ± 0.056 |
| GGCCGAAGGG | 1.03 ± 0.066 |
| GGCCGAGGGT | 1.03 ± 0.025 |
| GGCCGCCTTG | 1 ± 0.037 |
| GGCCGCGGAC | 1.01 ± 0.035 |
| GGCCGGCAAC | 0.9996 ± 0.0039 |
| GGCCGGCAGG | 0.972 ± 0.024 |
| GGCCGGCTAA | 0.997 ± 0.011 |
| GGCCGGGAAT | 0.9941 ± 0.0028 |
| GGCCGGGACT | 0.987 ± 0.062 |
| GGCCGGGGAG | 0.981 ± 0.018 |
| GGCCGGGGGC | 0.994 ± 0.047 |
| GGCCGTGAGG | 1.01 ± 0.0098 |
| GGCCGTTCGT | 1.008 ± 0.0091 |
| GGCCGTTTGG | 0.981 ± 0.032 |
| GGCCTAAAAG | 0.978 ± 0.022 |

| Sequence | switch fluorescence ratio |
| --- | --- |
| GGCCTCAAGG | 1.06 ± 0.04 |
| GGCCTGGATT | 1.05 ± 0.031 |
| GGCCTGGGCT | 1.02 ± 0.061 |
| GGCCTGGTGT | 1.29 ± 0.21 |
| GGCCTTATCG | 0.991 ± 0.048 |
| GGCCTTGGCA | 1.03 ± 0.015 |
| GGCCTTTATT | 1.01 ± 0.031 |
| GGCGACCTGG | 0.993 ± 0.021 |
| GGCGAGAACG | 0.986 ± 0.018 |
| GGCGCAACAG | 1.44 ± 0.14 |
| GGCGCAACCG | 1.09 ± 0.015 |
| GGCGCAAGGA | 2.41 ± 1.9 |
| GGCGCAGTGG | 1.11 ± 0.041 |
| GGCGCCTTTT | 0.988 ± 0.033 |
| GGCGCGGAGG | 0.992 ± 0.019 |
| GGCGCTGGAT | 1.02 ± 0.019 |
| GGCGGAAGAA | 1.07 ± 0.013 |
| GGCGGCGAGG | 1.02 ± 0.011 |
| GGCGGCGCAA | 1.51 ± 0.16 |
| GGCGGCGCTG | 1.03 ± 0.028 |
| GGCGGGAAAG | 0.983 ± 0.037 |
| GGCGGGATCT | 1.21 ± 0.26 |
| GGCGGGGTAG | 0.996 ± 0.032 |
| GGCGTAATCT | 1.04 ± 0.037 |
| GGCGTACTTG | 1.01 ± 0.012 |

| Sequence | switch fluorescence ratio |
| --- | --- |
| GGCGTAGGAG | 0.997 ± 0.021 |
| GGCGTATCAG | 0.979 ± 0.051 |
| GGCGTGGCGG | 0.994 ± 0.019 |
| GGCGTTGCGG | 0.9849 ± 0.0058 |
| GGCGTTTTCG | 0.997 ± 0.044 |
| GGCTAAGACT | 0.988 ± 0.024 |
| GGCTACTGAG | 1.08 ± 0.066 |
| GGCTAGTGAC | 1 ± 0.03 |
| GGCTATGTGG | 0.987 ± 0.03 |
| GGCTATTTTG | 0.999 ± 0.073 |
| GGCTCGGCAG | 1.05 ± 0.043 |
| GGCTCGGTAC | 1.24 ± 0.13 |
| GGCTCTTAGG | 0.975 ± 0.03 |
| GGCTGAAAGT | 0.991 ± 0.016 |
| GGCTGACATT | 0.979 ± 0.046 |
| GGCTGACCGG | 1 ± 0.048 |
| GGCTGACGTC | 1 ± 0.038 |
| GGCTGAGGCG | 0.965 ± 0.024 |
| GGCTGATGCA | 0.938 ± 0.034 |
| GGCTGCAATG | 1.39 ± 0.069 |
| GGCTGGAAAC | 1.23 ± 0.22 |
| GGCTGGGCTG | 0.991 ± 0.029 |
| GGCTGGGGCA | 0.979 ± 0.021 |
| GGCTGGTGTG | 1.02 ± 0.029 |
| GGCTGTTAAA | 0.978 ± 0.019 |

| Sequence | switch fluorescence ratio |
| --- | --- |
| GGCTTAAGGG | 0.972 ± 0.025 |
| GGCTTAATGA | 0.971 ± 0.029 |
| GGCTTAGGGG | 0.979 ± 0.022 |
| GGCTTATAGG | 1.02 ± 0.036 |
| GGCTTCACGA | 1.07 ± 0.014 |
| GGCTTCTGCT | 0.959 ± 0.022 |
| GGCTTGAAGG | 1.03 ± 0.032 |
| GGCTTGGCGT | 0.98 ± 0.034 |
| GGCTTGGGTT | 1.01 ± 0.039 |
| GGCTTTATTC | 0.984 ± 0.044 |
| GGCTTTCCTG | 1.1 ± 0.089 |
| GGCTTTGAGG | 1.01 ± 0.019 |
| GGCTTTGCCC | 0.9669 ± 0.0028 |
| GGCTTTTACG | 1.03 ± 0.042 |
| GGCTTTTGTG | 0.974 ± 0.036 |
| GGCTTTTTTT | 0.994 ± 0.029 |
| GGGAAAAAAG | 0.994 ± 0.026 |
| GGGAAAAACA | 1.02 ± 0.05 |
| GGGAAAAAGA | 1.03 ± 0.012 |
| GGGAAAAATA | 1.24 ± 0.51 |
| GGGAAAAGA | 1.04 ± 0.018 |
| GGGAAAATGG | 1.01 ± 0.016 |
| GGGAAACAAA | 0.96 ± 0.059 |
| GGGAAACAAT | 1.55 ± 0.91 |
| GGGAAAGATG | 0.986 ± 0.042 |

| Sequence | switch fluorescence ratio |
| --- | --- |
| GGGAAAGGGC | 0.961 ± 0.021 |
| GGGAAAGGGT | 1 ± 0.014 |
| GGGAAATAAA | 0.988 ± 0.013 |
| GGGAAATAGT | 0.9877 ± 0.0057 |
| GGGAAATATT | 1.06 ± 0.14 |
| GGGAAATCAT | 0.997 ± 0.015 |
| GGGAAATTAT | 0.9917 ± 0.0045 |
| GGGAACTTGG | 0.986 ± 0.0099 |
| GGGAAGAAAT | 1 ± 0.037 |
| GGGAAGACGA | 1.01 ± 0.014 |
| GGGAAGAGAG | 0.985 ± 0.021 |
| GGGAAGGCCA | 0.973 ± 0.024 |
| GGGAAGGGGC | 1.02 ± 0.018 |
| GGGAAGGGTA | 1 ± 0.033 |
| GGGAAGGTTT | 1.01 ± 0.012 |
| GGGAAGTTTG | 1 ± 0.038 |
| GGGAATAGAT | 0.9835 ± 0.002 |
| GGGAATAGCT | 0.999 ± 0.03 |
| GGGAATAGGG | 1.01 ± 0.02 |
| GGGAATATTA | 1.04 ± 0.023 |
| GGGAATCGTA | 1.04 ± 0.015 |
| GGGAATCGTG | 0.983 ± 0.012 |
| GGGAATGGGT | 1.01 ± 0.014 |
| GGGAATTACT | 1.87 ± 1.1 |
| GGGAATTTAA | 1.02 ± 0.019 |

| Sequence | switch fluorescence ratio |
| --- | --- |
| GGGAATTTGC | 1 ± 0.036 |
| GGGAATTTGT | 0.9942 ± 0.0096 |
| GGGAATTTTT | 1 ± 0.053 |
| GGGACAAGAT | 0.999 ± 0.026 |
| GGGACACGA | 0.988 ± 0.024 |
| GGGACAGAGG | 0.988 ± 0.0047 |
| GGGACAGCCT | 1.01 ± 0.017 |
| GGGACCGGCA | 1.01 ± 0.029 |
| GGGACCTTGT | 1.01 ± 0.064 |
| GGGACGATTT | 0.995 ± 0.017 |
| GGGACGGGGC | 1.06 ± 0.041 |
| GGGACGGTAG | 1.04 ± 0.034 |
| GGGACTCCAA | 1.24 ± 0.35 |
| GGGACTGGGA | 1 ± 0.031 |
| GGGACTTAGC | 1.02 ± 0.022 |
| GGGAGAACGG | 0.977 ± 0.046 |
| GGGAGAAGAG | 0.979 ± 0.036 |
| GGGAGAAGGG | 0.95 ± 0.023 |
| GGGAGAGAAT | 1.005 ± 0.0058 |
| GGGAGAGACT | 1.03 ± 0.014 |
| GGGAGAGGGC | 0.991 ± 0.013 |
| GGGAGATAGA | 0.982 ± 0.052 |
| GGGAGATGAC | 1.01 ± 0.022 |
| GGGAGGAGCA | 1.01 ± 0.073 |
| GGGAGGAGGT | 0.98 ± 0.024 |

| Sequence | switch fluorescence ratio |
| --- | --- |
| GGGAGGATTT | 0.987 ± 0.013 |
| GGGAGGCCGT | 1.04 ± 0.027 |
| GGGAGGCTCG | 1 ± 0.0082 |
| GGGAGGGGAG | 0.981 ± 0.019 |
| GGGAGGGGTT | 1.01 ± 0.04 |
| GGGAGGGTTG | 0.981 ± 0.031 |
| GGGAGGTATT | 0.99676 ± 0.00098 |
| GGGAGTGAGA | 1.03 ± 0.035 |
| GGGAGTGAGG | 1.01 ± 0.011 |
| GGGATAAGAA | 0.992 ± 0.02 |
| GGGATAGGCT | 1.02 ± 0.021 |
| GGGATATAAT | 1.02 ± 0.022 |
| GGGATATGTT | 0.9921 ± 0.0071 |
| GGGATCATTA | 0.983 ± 0.02 |
| GGGATCCTCC | 1.027 ± 0.006 |
| GGGATCGGGA | 0.995 ± 0.013 |
| GGGATCGTAA | 0.987 ± 0.016 |
| GGGATCGTTG | 0.965 ± 0.017 |
| GGGATCTGAA | 0.969 ± 0.026 |
| GGGATCTTGA | 1.07 ± 0.051 |
| GGGATGAATA | 0.982 ± 0.042 |
| GGGATGACGG | 0.975 ± 0.036 |
| GGGATGAGAG | 1 ± 0.04 |
| GGGATGAGGA | 0.9848 ± 0.0044 |
| GGGATGCGG | 0.9609 ± 0.0064 |

| Sequence | switch fluorescence ratio |
| --- | --- |
| GGGATGGCAG | 0.9816 ± 0.0059 |
| GGGATGGCTG | 1.01 ± 0.055 |
| GGGATGGGAT | 0.978 ± 0.037 |
| GGGATGGGGA | 1.02 ± 0.032 |
| GGGATGGGTT | 0.989 ± 0.025 |
| GGGATGGTTT | 0.988 ± 0.028 |
| GGGATTAGAT | 0.982 ± 0.013 |
| GGGATTATAT | 1.02 ± 0.032 |
| GGGATTATGT | 0.97 ± 0.015 |
| GGGATTCGCA | 0.99 ± 0.053 |
| GGGATTCGGG | 1.02 ± 0.022 |
| GGGATTGCTA | 1.03 ± 0.012 |
| GGGATTGGTG | 0.995 ± 0.026 |
| GGGATTTGTA | 1.02 ± 0.017 |
| GGGCAAAAAA | 1.03 ± 0.073 |
| GGGCAAACTT | 1.02 ± 0.018 |
| GGGCAAAGGG | 0.999 ± 0.041 |
| GGGCAACTGA | 1.01 ± 0.024 |
| GGGCAAGAGT | 1.03 ± 0.024 |
| GGGCAAGGAG | 1.01 ± 0.02 |
| GGGCAAGTCA | 1.02 ± 0.014 |
| GGGCAATGCT | 3.33 ± 3.1 |
| GGGCACAGAA | 0.9751 ± 0.0022 |
| GGGCACGTCG | 0.9888 ± 0.0094 |
| GGGCACTGGT | 1.04 ± 0.032 |
